31 molecules from patent US20180037631A1 (Bristol-Myers Squibb, published 2018) can be followed below.

Like-named read-outs stand apart in the source and are kept apart here.

Common to all, as to assay: cell-based or functional assay
Assay [1] concerns the target T1, EGFR on the surface of human tumour cells (A431, H292) (human, UniProt P00533 25-1210).
The target of assay [2] is T1, EGFR on the surface of human tumour …. This is another data set of the same source.
For assay [3] the target is unchanged. The source holds these as a separate data set.

B1: E70 (designed binder)
10Fn3 domain: MGVSDVPRDLEVVAATPTSLLISWVSARGRYQYYRITYGETGGNSPVQEFTVPGGVRTATISGLKPGVDYTITVYAVTDYYNLETYEYHYYRTPISINYRTEIDKPSQ
Regarding B1, in assay [1], the “% inhibition of EGFR phosphorylation at 100 nM binder, cell-based assay” value (“% inhibition of EGFR phosphorylation” for short) came out at 76.8%.

B2: E83 (designed binder)
10Fn3 domain: MGVSDVPRDLEVVAATPTSLLISWMFVGMSYQYYRITYGETGGNSPVQEFTVPYGVHTATISGLKPGVDYTITVYAVTDYFNPATHEYIYHVTPISINYRTEIDKPSQ
With B2, the “% inhibition of EGFR phosphorylation” value in assay [2] is 90.7%.

B3: E68 (designed binder)
10Fn3 domain: MGVSDVPRDLEVVAATPTSLLISWKTEPGRHQYYRITYGETGGNSPVQEFTVPGGVRTATISGLKPGVDYTITVYAVTDWYNLVSHEYVYHTTPISINYRTEIDKPSQ
As to B3, the “% inhibition of EGFR phosphorylation” value in assay [1] was 78.5%.

B4: E77 (designed binder)
10Fn3 domain: MGVSDVPRDLEVVAATPTSLLISWSSATRPYQYYRITYGETGGNSPVQEFTVPGGVRTATISGLKPGVDYTITVYAVTDFFNPTTHEYYYHTTPISINYRTEIDKPSQ
Turning to B4, in assay [2], the “% inhibition of EGFR phosphorylation” value worked out at 81.1%.

B5: E78 (designed binder)
10Fn3 domain: MGVSDVPRDLEVVAATPTSLLISWSVERSVYQYYRITYGETGGNSPVQEFTVPGGVRTATISGLKPGVDYTITVYAVTDYYNPSTHEYNYLTTPISINYRTEIDKPSQ
Consider B5, for which the “% inhibition of EGFR phosphorylation” value in assay [2] amounted to 76.9%.

B6: E4 (designed binder)
10Fn3 domain: MGVSDVPRDLEVVAATPTSLLISWHERDGSRQYYRITYGETGGNSPVQEFTVPGGVRTATISGLKPGVDYTITVYAVTDYFNPTTHEYIYQTTPISINYRTEIDKPSQ
Consider B6, for which the “% inhibition of EGFR phosphorylation” value in assay [2] stood at 94.3%.

B7: E80 (designed binder)
10Fn3 domain: MGVSDVPRDLEVVAATPTSLLISWSSSHRRYQYYRITYGETGGNSPVQEFTVPGSVATATISGLKPGVDYTITVYAVTDYFNPDTHEYLYHATPISINYRTEIDKPSQ
For B7, the “% inhibition of EGFR phosphorylation” value in assay [2] is 89.6%.

B8: E74 (designed binder)
10Fn3 domain: MGVSDVPRDLEVVAATPTSLLISWRASGGLYQYYRITYGETGGNSPVQEFTVPGSVNTATISGLKPGVDYTITVYAVTDFYNPATYEYIYHTTPISINYRTEIDKPSQ
Turning to B8, the “% inhibition of EGFR phosphorylation” value in assay [2] was 80.9%.

B9: E72 (designed binder)
10Fn3 domain: MGVSDVPRDLEVVAATPTSLLISWSATRTLYQYYRITYGETGGNSPVQEFTVPYDVHTATISGLKPGVDYTITVYAVTDYYNMVTYEYNYHLTPISINYRTEIDKPSQ
With B9, the “% inhibition of EGFR phosphorylation” value in assay [1] amounted to 82.8%.

B10: E84 (designed binder)
10Fn3 domain: MGVSDVPRDLEVVAATPTSLLISWTLHRKNYQYYRITYGETGGNSPVQEFTVPGGVVTATISGLKPGVDYTITVYAVTDYYNPATHEYDYRTTPISINYRTEIDKPSQ
In the case of B10, the “% inhibition of EGFR phosphorylation” value in assay [2] was 86.5%.

B11: E107 (designed binder)
10Fn3 domain: MGVSDVPRDLEVVAATPTSLLISWDSGRGSYQYYRITYGETGGNSPVQEFTVPYDVYTATISGLKPGVDYTITVYAVTDMMHVEYTEHPISINYRTEIDKPSQH
Take B11: the “% inhibition of EGFR phosphorylation” value in assay [3] amounted to 75.8%.

B12: E79 (designed binder)
10Fn3 domain: MGVSDVPRDLEVVAATPTSLLISWQDTSSYHQYYRITYGETGGNSPVQEFTVPGGVRTATISGLKPGVDYTITVYAVTDYFNPSTHEYIYRTIPISINYRTEIDKPSQ
Take B12: the “% inhibition of EGFR phosphorylation” value in assay [2] is 99.2%.

B13: E73 (designed binder)
10Fn3 domain: MGVSDVPRDLEVVVATPTSLLISWTKLLGGYQYYRITYGETGGNSPVQEFTVPGPVYTATISGLKPGVDYTITVYAVTDFFNPRTHEYQYHTTPISINYRTEIDKPSQ
In the case of B13, the “% inhibition of EGFR phosphorylation” value in assay [2] worked out at 78.8%.

B14: E103 (designed binder)
10Fn3 domain: MGVSDVPRDLEVVAATPTSLLISWTPANKSYQYYRITYGETGGNSPVQEFTVPGGVRTATISGLKPGVDYTITVYAVTNMMHVEYSEYPISINYRTEIDKPSQ
Turning to B14, the “% inhibition of EGFR phosphorylation” value in assay [3] turned out to be 76.3%.

B15: E69 (designed binder)
10Fn3 domain: MGVSDVPRDLEVVAATPTSLLISWHAGMAVYQYYRITYGETGGNSPVQEFTVPGDVLTATISGLKPGVDYTITVYAVTDFFNPVTHEYMYHTIPISINYRTEIDKPSQ
B15: the “% inhibition of EGFR phosphorylation” value in assay [1] was 85.1%.

B16: E75 (designed binder)
10Fn3 domain: MGVSDVPRDLEVVAATPTSLLISWAAGRATYQYYRITYGETGGNSPVQEFTVPYDVTTATISGLKPGVDYTITVYAVTDFYNPATHEYYYETTPISINYRTEIDKPSQ
For the molecule B16, the “% inhibition of EGFR phosphorylation” value in assay [2] was 76.5%.

B17: E71 (designed binder)
10Fn3 domain: MGVSDVPRDLEVVAATPTSLLISWWFGTSSYQYYRITYGETGGNSPVQEFTVPGDLKTATISGLKPGVDYTITVYAVTDYFNPVTHEYEYHTTPISINYRTEIDKPSQ
On to B17, for which the “% inhibition of EGFR phosphorylation” value in assay [1] was determined as 80.4%.

B18: E82 (designed binder)
10Fn3 domain: MGVSDVPRDLEVVAATPTSLLISWRVLVDMYQYYRITYGETGGNSPVQEFTVPGGVLTATISGLKPGVDYTITVYAVTDYKPHVDGPHTYYESPISINYRTEIDKPSQ
For the molecule B18, in assay [2], the “% inhibition of EGFR phosphorylation” value came out at 77.2%.

B19: E110 (designed binder)
10Fn3 domain: MGVSDVPRDLEVVAATPTSLLISWDAGAVTYQYYRITYGETGGNSPVQEFTVPGGVRTATISGLKPGVDYTITVYAVTDYKPHADGPHTYHESPISINYRTEIDKPSQ
B19: the “% inhibition of EGFR phosphorylation” value in assay [3] was determined as 81.3%.

B20: E105 (designed binder)
10Fn3 domain: MGVSDVPRDLEVVAATPTSLLISWDAPTSRYQYYRITYGETGGNSPVQEFTVPGGLSTATISGLKPGVDYTITVYAVTDYKPHADGPHTYHESPISINYRTEIDKPSQ
For B20, in assay [3], the “% inhibition of EGFR phosphorylation” value is 87%.

B21: E108 (designed binder)
10Fn3 domain: MGVSDVPRDLEVVAATPTSLLISWDAPAVTYQYYRITYGETGGNSPVQEFTVPGGVRTATISGLKPGVDYTITVYAVTDYKPHADGPHTYHESPISINYRTEIDKPSQ
As for B21, in assay [3], the “% inhibition of EGFR phosphorylation” value was found to be 80%.

B22: E99 (designed binder)
10Fn3 domain: MGVSDVPRDLEVVAATPTSLLISWDAPTSRYQYYRITYGETGGNSPVQEFTVPGGVRTATISGLKPGVDYTITVYAVTDYKPHADGPHTYHEYPISINYRTEIDKPSQ
Regarding B22, the “% inhibition of EGFR phosphorylation” value in assay [3] turned out to be 84.7%.

B23: E81 (designed binder)
10Fn3 domain: MGVSDVPRDLEVVAATPTSLLISWDNNSNSYQYYRITYGETGGNSPVQEFTVPYDLRTATISGLKPGVDYTITVYAVTDYKPHTEGEHTYHESPISINYRTEIDKPSQ
Consider B23, for which the “% inhibition of EGFR phosphorylation” value in assay [2] was determined as 75.1%.

B24: E109 (designed binder)
10Fn3 domain: MGVSDVPRDLEVVAATPTSLLISWDAPTSRYQYYRITYGETGGNSPVQEFTVPHDLVTATISGLKPGVDYTITVYAVTDYKPHADGPHTYHESPISINYRTEIDKPSQ
On to B24, for which the “% inhibition of EGFR phosphorylation” value in assay [3] was determined as 90.9%.

B25: E101 (designed binder)
10Fn3 domain: MGVSDVPRDLEVVAATPTSLLISWDAPAVTYQYYRITYGETGGNSPVQEFTVPHDLVTATISGLKPGVDYTITVYAVTDYKPHADGPHTYHESPISINYRTEIDKPSQ
Regarding B25, in assay [3], the “% inhibition of EGFR phosphorylation” value was 90.9%.

B26: E85 (designed binder)
10Fn3 domain: MGVSDVPRDLEVVAATPTSLLISWTQGSTHYQYYRITYGETGGNSPVQEFTVPGMVYTATISGLKPGVDYTITVYAVTDYFDRSTHEYKYRTTPISINYRTEIDKPSQ
For the molecule B26, the “% inhibition of EGFR phosphorylation” value in assay [2] stood at 89.3%.

B27: E76 (designed binder)
10Fn3 domain: MGVSDVPRDLEVVAATPTSLLISWYSQPLTYQYYRITYGETGGNSPVQEFTVPHDVNTATISGLKPGVDYTITVYAVTDFYNPETHEYTYHLTPISINYRTEIDKPSQ
Turning to B27, in assay [2], the “% inhibition of EGFR phosphorylation” value came out at 79%.

B28: E100 (designed binder)
10Fn3 domain: MGVSDVPRDLEVVAATPTSLLISWTPANKSYQYYRITYGETGGNSPVQEFTVPHDLVTATISGLKPGVDYTITVYAVTDHKPHADGPHTYHEYPISINYRTEIDKPSQ
For the molecule B28, in assay [3], the “% inhibition of EGFR phosphorylation” value was 83.3%.

B29: E102 (designed binder)
10Fn3 domain: MGVSDVPRDLEVVAATPTSLLISWTPANKSYQYYRITYGETGGNSPVQEFTVPHDLVTATISGLKPGVDYTITVYAVTDHKPHADGPHTYHESPISINYRTEIDKPSQ
B29: the “% inhibition of EGFR phosphorylation” value in assay [3] turned out to be 80%.

B30: E104 (designed binder)
10Fn3 domain: MGVSDVPRDLEVVAATPTSLLISWDAGAVTYQYYRITYGETGGNSPVQEFTVPHDLVTATISGLKPGVDYTITVYAVTDHKPHADGPHTYHEYPISINYRTEIDKPSQ
For B30, the “% inhibition of EGFR phosphorylation” value in assay [3] stood at 89.3%.

B31: E106 (designed binder)
10Fn3 domain: MGVSDVPRDLEVVAATPTSLLISWDAPAVTYQYYRITYGETGGNSPVQEFTVPYDVYTATISGLKPGVDYTITVYAVTDYKPHADGPHTYHEYPISINYRTEIDKPSQ
With B31, the “% inhibition of EGFR phosphorylation” value in assay [3] is 84%.
